Changes are numbered by the printed parent chain. Several values for one entry are separate records, joined by “and”; a condition that tells them apart may be missing. Identical values can stand only once.
B1: 17L, 72A (protein, listed as Rattus norvegicus)
chain: AFDGTWKVDRNENYEKLMEKMGINVVKRKLGAHDNLKLTITQEGNKFTVKESSNFRNIDVVFELGVDFAYSAADGTELTGTWTMEGNKLVGKFKRVDNGKELIAVREISGNELIQTYTYEGVEAKRIFKKE
modifications: PEPTIDE (1)...(131) wild-type rat intestinal fatty acid binding protein
B2: 21W, 72A (protein, listed as Rattus norvegicus)
chain: B1 chain with L17F, M21W
modifications: PEPTIDE (1)...(131) wild-type rat intestinal fatty acid binding protein
B3: 23H1, 72A (protein, listed as Rattus norvegicus)
chain: B1 chain with L17F, I23H
modifications: PEPTIDE (1)...(131) wild-type rat intestinal fatty acid binding protein
B4: 17S, 72A (protein, listed as Rattus norvegicus)
chain: B1 chain with L17S
modifications: PEPTIDE (1)...(131) wild-type rat intestinal fatty acid binding protein
B5: 23L3, 72A (protein, listed as Rattus norvegicus)
chain: B1 chain with L17F, I23L
modifications: PEPTIDE (1)...(131) wild-type rat intestinal fatty acid binding protein
B6: 23T1, 72A (protein, listed as Rattus norvegicus)
chain: B1 chain with L17F, I23T
modifications: PEPTIDE (1)...(131) wild-type rat intestinal fatty acid binding protein
B7: 17N, 72A (protein, listed as Rattus norvegicus)
chain: B1 chain with L17N
modifications: PEPTIDE (1)...(131) wild-type rat intestinal fatty acid binding protein
B8: 23N1, 72A (protein, listed as Rattus norvegicus)
chain: B1 chain with L17F, I23N
modifications: PEPTIDE (1)...(131) wild-type rat intestinal fatty acid binding protein
B9: 23W1, 72A (protein, listed as Rattus norvegicus)
chain: B1 chain with L17F, I23W
modifications: PEPTIDE (1)...(131) wild-type rat intestinal fatty acid binding protein
B10: 17W, 72A (protein, listed as Rattus norvegicus)
chain: B1 chain with L17W
modifications: PEPTIDE (1)...(131) wild-type rat intestinal fatty acid binding protein
B11: 17P, 72A (protein, listed as Rattus norvegicus)
chain: B1 chain with L17P
modifications: PEPTIDE (1)...(131) wild-type rat intestinal fatty acid binding protein
B12: 17T, 72A (protein, listed as Rattus norvegicus)
chain: B1 chain with L17T
modifications: PEPTIDE (1)...(131) wild-type rat intestinal fatty acid binding protein
B13: 17Y, 72A (protein, listed as Rattus norvegicus)
chain: B1 chain with L17Y
modifications: PEPTIDE (1)...(131) wild-type rat intestinal fatty acid binding protein
B14: 23K1, 72A (protein, listed as Rattus norvegicus)
chain: B1 chain with L17F, I23K
modifications: PEPTIDE (1)...(131) wild-type rat intestinal fatty acid binding protein
B15: 23F2, 72A (protein, listed as Rattus norvegicus)
chain: B1 chain with L17F, I23F
modifications: PEPTIDE (1)...(131) wild-type rat intestinal fatty acid binding protein
B16: 17R, 72A (protein, listed as Rattus norvegicus)
chain: B1 chain with L17R
modifications: PEPTIDE (1)...(131) wild-type rat intestinal fatty acid binding protein
B17: 18Q, 72A (protein, listed as Rattus norvegicus)
chain: B1 chain with L17F, M18Q
modifications: PEPTIDE (1)...(131) wild-type rat intestinal fatty acid binding protein
B18: 17V, 72A (protein, listed as Rattus norvegicus)
chain: B1 chain with L17V
modifications: PEPTIDE (1)...(131) wild-type rat intestinal fatty acid binding protein
B19: 23V2, 72A (protein, listed as Rattus norvegicus)
chain: B1 chain with L17F, I23V
modifications: PEPTIDE (1)...(131) wild-type rat intestinal fatty acid binding protein
B20: 23P1, 72A (protein, listed as Rattus norvegicus)
chain: B1 chain with L17F, I23P
modifications: PEPTIDE (1)...(131) wild-type rat intestinal fatty acid binding protein
B21: 17Q, 72A (protein, listed as Rattus norvegicus)
chain: B1 chain with L17Q
modifications: PEPTIDE (1)...(131) wild-type rat intestinal fatty acid binding protein
B22: 17M, 72A (protein, listed as Rattus norvegicus)
chain: B1 chain with L17M
modifications: PEPTIDE (1)...(131) wild-type rat intestinal fatty acid binding protein
B23: 23R3, 72A (protein, listed as Rattus norvegicus)
chain: B1 chain with L17F, I23R
modifications: PEPTIDE (1)...(131) wild-type rat intestinal fatty acid binding protein

Assay: Probe fluorescence ratio response to arachidonic acid relative to ADIFAB2
Assay type: binding
Conditions: arachidonic acid; response relative to ADIFAB2
Outline: (§1)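 Fluorescently labeled rat intestinal FABP variants were read at two emission wavelengths, near the unbound maximum (about 420 to 480 nm) and the FFA-bound maximum (about 495 to 580 nm). R = Fλ1/Fλ2 after subtracting probe-free intensity; ΔR = R+agent − R0, normalized to ADIFAB2 (rI-FABP-L72A).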

| Molecule | DR/DR AA |
| --- | --- |
| B1 | 0.52 and 0.525 |
| B2 | 3.70 |
| B3 | 0.16 |
| B4 | 0.50 |
| B5 | 1.17 |
| B6 | 0.22 |
| B7 | 0.47 |
| B8 | 0.12 |
| B9 | 0.62 |
| B10 | 1.42 and 1.421 |
| B11 | 0.51 |
| B12 | 0.50 |
| B13 | 0.73 and 0.729 |
| B14 | 0.13 |
| B15 | 0.22 |
| B16 | 0.43 |
| B17 | 0.09 |
| B18 | 0.64 and 0.639 |
| B19 | 1.46 |
| B20 | 1.25 |
| B21 | 0.62 |
| B22 | 0.59 |
| B23 | 0.14 |

Assay: Probe fluorescence ratio response to linoleic acid relative to ADIFAB2
Assay type: binding
Conditions: response relative to ADIFAB2
Outline: as §1

| Molecule | DR/DR LA |
| --- | --- |
| B1 | 0.42 |
| B2 | 2.43 |
| B3 | 0.13 |
| B4 | 0.56 |
| B5 | 1.04 |
| B6 | 0.33 |
| B7 | 0.50 |
| B8 | 0.13 |
| B9 | 0.79 |
| B10 | 1.42 and 1.416 |
| B11 | 0.60 |
| B12 | 0.51 |
| B13 | 0.71 and 0.712 |
| B14 | 0.14 |
| B15 | 0.19 |
| B16 | 0.52 |
| B17 | 0.11 |
| B18 | 0.55 and 0.549 |
| B19 | 1.73 |
| B20 | 1.36 |
| B21 | 0.59 |
| B22 | 0.49 and 0.489 |
| B23 | 0.14 |

Assay: Probe fluorescence ratio response to palmitic acid relative to ADIFAB2
Assay type: binding
Conditions: response relative to ADIFAB2
Outline: as §1

| Molecule | DR/DR PA |
| --- | --- |
| B1 | 0.28 and 0.279 |
| B2 | 1.45 |
| B3 | 0.13 |
| B4 | 0.25 |
| B5 | 0.93 |
| B6 | 0.24 |
| B7 | 0.22 |
| B8 | 0.10 |
| B9 | 0.49 |
| B10 | 1.07 and 1.067 |
| B11 | 0.24 |
| B12 | 0.25 |
| B13 | 0.50 |
| B14 | 0.08 |
| B15 | 0.12 |
| B16 | 0.22 |
| B17 | 0.09 |
| B18 | 0.31 and 0.308 |
| B19 | 1.48 |
| B20 | 0.64 |
| B21 | 0.29 |
| B22 | 0.28 and 0.281 |
| B23 | 0.10 |

Assay: Probe fluorescence ratio response to linolenic acid relative to ADIFAB2
Assay type: binding
Conditions: response relative to ADIFAB2
Outline: as §1

| Molecule | DR/DR LNA |
| --- | --- |
| B1 | 0.45 and 0.447 |
| B2 | 2.40 |
| B3 | 0.17 |
| B4 | 0.61 |
| B5 | 1.03 |
| B6 | 0.21 |
| B7 | 0.51 |
| B8 | 0.13 |
| B9 | 0.96 |
| B10 | 1.61 and 1.611 |
| B11 | 0.63 |
| B12 | 0.51 |
| B13 | 0.81 and 0.806 |
| B14 | 0.13 |
| B15 | 0.17 |
| B16 | 0.48 |
| B17 | 0.13 |
| B18 | 0.59 and 0.586 |
| B19 | 1.35 |
| B20 | 1.38 |
| B21 | 0.59 |
| B22 | 0.53 and 0.532 |
| B23 | 0.14 |

Assay: Probe fluorescence ratio response to oleic acid relative to ADIFAB2
Assay type: binding
Conditions: response relative to ADIFAB2
Outline: as §1

| Molecule | DR/DR OA |
| --- | --- |
| B1 | 0.46 and 0.459 |
| B2 | 3.02 |
| B3 | 0.11 |
| B4 | 0.47 |
| B5 | 1.06 |
| B6 | 0.19 |
| B7 | 0.49 |
| B8 | 0.12 |
| B9 | 0.45 |
| B10 | 1.24 and 1.241 |
| B11 | 0.55 |
| B12 | 0.49 |
| B13 | 0.73 and 0.732 |
| B14 | 0.13 |
| B15 | 0.20 |
| B16 | 0.45 |
| B17 | 0.08 |
| B18 | 0.56 and 0.558 |
| B19 | 1.56 |
| B20 | 1.24 |
| B21 | 0.55 |
| B22 | 0.49 |
| B23 | 0.12 |

Reference: patent US20060257938A1, “Method of screening for drugs that block ligand binding to a lipid binding protein” (priority 2005, published 2006)
